From patent US6355256B1, “Compositions containing a p53 derived protein or peptide, an adjuvant, and interleukin-12 and uses thereof” (Ludwig Institute for Cancer Research, priority 1994, dated 2002)
Entries after “also recorded” stand apart in the source; their conditions may differ. No end group written: not given here.

B1: IL-12: the cytokine interleukin-12 (protein, UniProt P29459 23-219; P29460 23-328, looked up)
Interleukin-12 subunit alpha: RNLPVATPDPGMFPCLHHSQNLLRAVSNMLQKARQTLEFYPCTSEEIDHEDITKDKTSTVEACLPLELTKNESCLNSRETSFITNGSCLASRKTSFMMALCLSSIYEDLKMYQVEFKTMNAKLLMDPKRQIFLDQNMLAVIDELMQALNFNSETVPQKSSLEEPDFYKTKIKLCILLHAFRIRAVTIDRVMSYLNAS
Interleukin-12 subunit beta: IWELKKDVYVVELDWYPDAPGEMVVLTCDTPEEDGITWTLDQSSEVLGSGKTLTIQVKEFGDAGQYTCHKGGEVLSHSLLLLHKKEDGIWSTDILKDQKEPKNKTFLRCEAKNYSGRFTCWWLTTISTDLTFSVKSSRGSSDPQGVTCGAATLSAERVRGDNKEYEYSVECQEDSACPAAEESLPIEVMVDAVHKLKYENYTSSFFIRDIIKPDPPKNLQLKPLKNSRQVEVSWEYPDTWSTPHSYFSLTFCVQVQGKSKREKKDRVFTDKTSATVICRKNASISVRAQDRYYSSSWSEWASVPCS

Legend:
[1] = tested on: Meth A sarcoma; experiment: Suppression of growth of established Meth A tumors by peptide in adjuvant plus low dose IL-12; format: in vivo, BALB/C mice; conditions: for suppression of tumor growth: peptide in QS-21 or QS-21 alone at days 7 and 14 after Meth A challenge, IL-12 1 ng, 4 times a week for two weeks from day 7
Method: As with the prior experiments, female BALB/C mice were injected with 5×10^4 Meth A cells at day 0. The mice received two injections of the mutant peptide in QS-21, the wild type peptide in QS-21, or QS-21 alone in the same manner described in Example 3, at weekly intervals. At day 7, the mice began receiving injections of 1 ng of IL-12 (4 times a week, for two weeks).
FIG. 4A resulted from QS-21 plus the mutant peptide followed by injections of IL-12. FIG. 4B resulted from QS-21 plus peptide, followed by injections with IL-12. FIG. 4C resulted from QS-21 alone followed by injections of IL-12.

[2] = tested on: P1-HTR cells pulsed with peptide; experiment: Generation of peptide-specific CTLs after immunization with peptide, adjuvant and IL-12 (51Cr release assay); format: cell-based, BALB/C mice
[3] = tested on: Meth A sarcoma; experiment: Timing of IL-12 administration relative to Meth A challenge; format: in vivo, BALB/C mice; conditions: 100 ng IL-12 at day -14, day 0 or day 7 relative to Meth A challenge
Method: The importance of timing in the administration of IL-12 was then studied. In these experiments, female BALB/C mice were again injected with 5×10^4 Meth A cells, as in Example 1 (day 0). Injections of 100 ng IL-12 were administered at day “−14” (i.e., 14 days before challenge with the tumor cells), day 0, or day 7 (i.e., 7 days after challenge) as in Example 1.

[4] = tested on: Meth A sarcoma; experiment: Anti-tumor effect of IL-12 on established Meth A sarcoma in mice (tumor diameter); format: in vivo, BALB/C mice
Method: The in vivo model employed used the transplantable, methylcholanthrene-induced sarcoma “Meth A.” This is a sarcoma of BALB/C (murine) origin, passaged as an ascitic tumor. See Old, et al, Ann. N.Y. Acad. Sci 101:80-106 (1962), incorporated by reference in its entirety.
BALB/C female mice were injected intradermally with 5×10^4 Meth A cells on day 0. Seven days later, a treatment regime began, wherein the animals received doses of IL-12, 4 times a week. Control animals received no IL-12. The remaining animals received 1 ng, 10 ng, 100 ng, or 500 ng of IL-12 in each dose, administered by intraperitoneal injection.
The effect of the IL-12 on the induced tumors was observed by measuring the diameter of the tumors at the end of the treatment period. FIGS. 1A, 1B, 1C, 1D and 1E show this. The panels show results with doses of 0 ng, 1 ng, 10 ng, 100 ng, and 500 ng, respectively.
The effect of the IL-12 was abolished by administering monoclonal antibodies against CD8 molecules, but was not affected via administration of anti-CD4 mAbs.

Row | Molecule | suppression of tumor growth [1] | CTLs elicited following immunization ([2]; 100 μg peptide twice at weekly intervals, regardless of the adjuvant (QS-21 or IFA) or treatment with IL-12) | effectiveness by timing of administration [3] | stimulation of an immune response when used alone ([1]; each component alone, summary of the examples) | optimal dose of IL-12 for the generation of CTLs ([2]; IL-12 0.1, 1, 10 or 100 ng, four times over two weeks, with peptide in QS-21 or IFA) | effect of higher doses of IL-12 on generation of CTLs ([2]; IL-12 doses above 1 ng, with peptide in QS-21 or IFA) | anti-tumor effect (diameter of the tumors at the end of the treatment period) ([4]; IL-12 1, 10, 100 or 500 ng i.p., 4 times a week from day 7 after 5×10^4 Meth A cells intradermally) | effect of the IL-12 on tumors when anti-CD4 mAbs are administered ([4]; with anti-CD4 mAbs) | effect of the IL-12 on tumors when monoclonal antibodies against CD8 are administered ([4]; with anti-CD8 mAbs)
1 | KYMCNSSCM (cysteine pairing not given here) [wild type peptide, wild type counterpart of peptide 234 CM] | did not lead to suppression of tumor growth | No CTLs were elicited | – | – | – | – | – | – | –
2 | B1 | strong suppression of tumor growth; also recorded: growth suppressive effect | – | most effective after the tumor had become established; also recorded: particularly effective after tumors have already formed | none | 1 ng | suppressive effect | dose dependent anti-tumor effect | not affected | abolished
